# Assay results from US20230158141A1.
# How the values were obtained:
# [1] = biological target: His tagged VEGF protein (UniProt P15692); experiment: ELISA, His tagged VEGF protein
# [2] = biological target: His tagged CD20 protein (UniProt P11836); experiment: ELISA, His tagged CD20 protein
# Sequence of His tagged VEGF protein (P15692 other isoform, or with tags, fused parts or gaps limits assumed): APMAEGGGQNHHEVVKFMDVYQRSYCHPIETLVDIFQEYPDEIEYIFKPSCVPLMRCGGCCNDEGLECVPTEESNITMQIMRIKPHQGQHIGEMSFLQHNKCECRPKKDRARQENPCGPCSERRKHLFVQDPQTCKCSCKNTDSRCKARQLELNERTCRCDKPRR
Binder,Blocking efficiency of S47 [1] [fold],Blocking efficiency of S47 [2] [fold]
"Beva-se002 conjugated to S47 (antibody, human IgG1, kappa, V domains shown, S47 on Cys 26) VH: EVQLVESGGGLVQPGGSLRLSCAASGYTFTNYGMNWVRQAPGKGLEWVGWINTYTGEPTYAADFKRRFTFSLDTSKSTAYLQMNSLRAEDTAVYYCAKYPHYYGSSHWYFDVWGQGTLVTVSS VL: DIQMTQSPSSLSASVGDRVTITCSACQDISNYLNWYQQKPGKAPKVLIYFTSSLHSGVPSRFSGSGSGTDFTLTISSLQPEDFATYYCQQYSTVPWTFGQGTKVEIKR",16,
"Beva-se003 conjugated to S47 (antibody, human IgG1, kappa, V domains shown, S47 on Cys 49) VH: EVQLVESGGGLVQPGGSLRLSCAASGYTFTNYGMNWVRQAPGKGLEWVGWINTYTGEPTYAADFKRRFTFSLDTSKSTAYLQMNSLRAEDTAVYYCAKYPHYYGSSHWYFDVWGQGTLVTVSS VL: DIQMTQSPSSLSASVGDRVTITCSASQDISNYLNWYQQKPGKAPKVLICFTSSLHSGVPSRFSGSGSGTDFTLTISSLQPEDFATYYCQQYSTVPWTFGQGTKVEIKR",26,
"Beva -se004 conjugated to S47 (antibody, human IgG1, kappa, V domains shown, S47 on Cys 51) VH: EVQLVESGGGLVQPGGSLRLSCAASGYTFTNYGMNWVRQAPGKGLEWVGWINTYTGEPTYAADFKRRFTFSLDTSKSTAYLQMNSLRAEDTAVYYCAKYPHYYGSSHWYFDVWGQGTLVTVSS VL: DIQMTQSPSSLSASVGDRVTITCSASQDISNYLNWYQQKPGKAPKVLIYFCSSLHSGVPSRFSGSGSGTDFTLTISSLQPEDFATYYCQQYSTVPWTFGQGTKVEIKR",13,
"Ritu-se001 conjugated to S47 (antibody, human IgG1, kappa, V domains shown, S47 on Cys 32) VH: QVQLQQPGAELVKPGASVKMSCKASGYTFTSCNMHWVKQTPGRGLEWIGAIYPGNGDTSYNQKFKGKATLTADKSSSTAYMQLSSLTSEDSAVYYCARSTYYGGDWYFNVWGAGTTVTVSA VL: QIVLSQSPAILSASPGEKVTMTCRASSSVSYIHWFQQKPGSSPKPWIYATSNLASGVPVRFSGSGSGTSYSLTISRVEAEDAATYYCQQWTSNPPTFGGGTKLEIKR",,16
"Ritu-se002 conjugated to S47 (antibody, human IgG1, kappa, V domains shown, S47 on Cys 63) VH: QVQLQQPGAELVKPGASVKMSCKASGYTFTSYNMHWVKQTPGRGLEWIGAIYPGNGDTSYNQCFKGKATLTADKSSSTAYMQLSSLTSEDSAVYYCARSTYYGGDWYFNVWGAGTTVTVSA VL: QIVLSQSPAILSASPGEKVTMTCRASSSVSYIHWFQQKPGSSPKPWIYATSNLASGVPVRFSGSGSGTSYSLTISRVEAEDAATYYCQQWTSNPPTFGGGTKLEIKR",,8
